Positions of bridges follow the written chain, without caps; N, C: chain ends. Non-standard residues stand in square brackets, D forms with d. Gly(1-adamantyl) = N[C@H](C(=O)O)C12CC3CC(CC(C3)C1)C2; Phe(4-CF3) = N[C@@H](Cc1ccc(C(F)(F)F)cc1)C(=O)O; Phe(4-tBu) = CC(C)(C)c1ccc(C[C@H](N)C(=O)O)cc1; 2Nal = N[C@@H](Cc1ccc2ccccc2c1)C(=O)O; Igl = N[C@H](C(=O)O)C1Cc2ccccc2C1; hCha = N[C@@H](CCC1CCCCC1)C(=O)O; hPhe = N[C@@H](CCc1ccccc1)C(=O)O; R8 = C=CCCCCCC[C@@](C)(N)C(=O)O; Cha = N[C@@H](CC1CCCCC1)C(=O)O; Cba = N[C@@H](CC1CCC1)C(=O)O; hLeu = CC(C)CC[C@H](N)C(=O)O; S5 = C=CCCC[C@](C)(N)C(=O)O
Tests used:
Assay in all cases: Ki table, method not stated
MCL-1 = target: T1, MCL-1 (UniProt Q07820 172-327, limits assumed)
T1 construct: also called Myeloid cell leukemia 1
T1 sequence (Q07820 172-327 limits assumed): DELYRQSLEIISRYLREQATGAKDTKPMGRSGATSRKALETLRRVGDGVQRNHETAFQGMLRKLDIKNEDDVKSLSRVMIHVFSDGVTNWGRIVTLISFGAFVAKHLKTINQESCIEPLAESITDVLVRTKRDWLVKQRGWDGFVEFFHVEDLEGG

BCL-XL = BCL-XL (UniProt Q07817 1-209)
BCL-XL, sequence (Q07817 1-209): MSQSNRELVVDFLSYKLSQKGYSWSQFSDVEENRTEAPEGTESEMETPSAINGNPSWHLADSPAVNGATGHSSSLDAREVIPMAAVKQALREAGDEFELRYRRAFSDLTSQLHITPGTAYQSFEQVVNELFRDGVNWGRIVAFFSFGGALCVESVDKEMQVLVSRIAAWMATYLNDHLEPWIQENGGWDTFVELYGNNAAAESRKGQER

BCL-2 = BCL-2 (UniProt P10415 1-217, limits assumed)
BCL-2, sequence (P10415 1-217 limits assumed): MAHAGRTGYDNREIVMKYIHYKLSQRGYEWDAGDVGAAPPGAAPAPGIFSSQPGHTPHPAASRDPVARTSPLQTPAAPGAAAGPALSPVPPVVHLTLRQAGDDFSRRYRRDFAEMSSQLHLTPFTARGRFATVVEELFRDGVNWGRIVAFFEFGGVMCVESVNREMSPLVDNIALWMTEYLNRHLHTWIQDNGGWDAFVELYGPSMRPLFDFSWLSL

Binder	Ki (MCL-1)	Ki (BCL-XL)	Ki (BCL-2)
Ac-IW[Gly(1-adamantyl)]AQALR[R8]IGDAFN[S5]YYA-NH2 (staple 9-16; SMILES CC[C@H](C)[C@H](NC(C)=O)C(=O)N[C@@H](Cc1c[nH]c2ccccc12)C(=O)N[C@H](C(=O)N[C@@H](C)C(=O)N[C@@H](CCC(N)=O)C(=O)N[C@@H](C)C(=O)N[C@@H](CC(C)C)C(=O)N[C@@H](CCCNC(=N)N)C(=O)N[C@]1(C)CCCCCCC=CCCC[C@@](C)(C(=O)N[C@@H](Cc2ccc(O)cc2)C(=O)N[C@@H](Cc2ccc(O)cc2)C(=O)N[C@@H](C)C(N)=O)NC(=O)[C@H](CC(N)=O)NC(=O)[C@H](Cc2ccccc2)NC(=O)[C@H](C)NC(=O)[C@H](CC(=O)O)NC(=O)CNC(=O)[C@H]([C@@H](C)CC)NC1=O)C12CC3CC(CC(C3)C1)C2, also called Ac-IWAdmAQALR$r8IGDAFN$YYA-NH2) [SEQ ID NO: 1679]	21.6 nM	7.3 nM	59 nM
Ac-IWIAQALR[R8][hLeu]GDAFN[S5]YYA-NH2 (staple 9-16; SMILES CC[C@H](C)[C@H](NC(C)=O)C(=O)N[C@@H](Cc1c[nH]c2ccccc12)C(=O)N[C@H](C(=O)N[C@@H](C)C(=O)N[C@@H](CCC(N)=O)C(=O)N[C@@H](C)C(=O)N[C@@H](CC(C)C)C(=O)N[C@@H](CCCNC(=N)N)C(=O)N[C@]1(C)CCCCCCC=CCCC[C@@](C)(C(=O)N[C@@H](Cc2ccc(O)cc2)C(=O)N[C@@H](Cc2ccc(O)cc2)C(=O)N[C@@H](C)C(N)=O)NC(=O)[C@H](CC(N)=O)NC(=O)[C@H](Cc2ccccc2)NC(=O)[C@H](C)NC(=O)[C@H](CC(=O)O)NC(=O)CNC(=O)[C@H](CCC(C)C)NC1=O)[C@@H](C)CC) [SEQ ID NO: 1699]	13 nM	6 nM	12.7 nM
Ac-IW[2Nal]AQALR[R8]IGDAFN[S5]YYA-NH2 (staple 9-16; SMILES CC[C@H](C)[C@H](NC(C)=O)C(=O)N[C@@H](Cc1c[nH]c2ccccc12)C(=O)N[C@@H](Cc1ccc2ccccc2c1)C(=O)N[C@@H](C)C(=O)N[C@@H](CCC(N)=O)C(=O)N[C@@H](C)C(=O)N[C@@H](CC(C)C)C(=O)N[C@@H](CCCNC(=N)N)C(=O)N[C@]1(C)CCCCCCC=CCCC[C@@](C)(C(=O)N[C@@H](Cc2ccc(O)cc2)C(=O)N[C@@H](Cc2ccc(O)cc2)C(=O)N[C@@H](C)C(N)=O)NC(=O)[C@H](CC(N)=O)NC(=O)[C@H](Cc2ccccc2)NC(=O)[C@H](C)NC(=O)[C@H](CC(=O)O)NC(=O)CNC(=O)[C@H]([C@@H](C)CC)NC1=O, also called Ac-IW2NalAQALR$r8IGDAFN$YYA-NH2) [SEQ ID NO: 1685]	163 nM	151 nM	265 nM
Ac-IW[Phe(4-CF3)]AQALR[R8]IGDAFN[S5]YYA-NH2 (staple 9-16; SMILES CC[C@H](C)[C@H](NC(C)=O)C(=O)N[C@@H](Cc1c[nH]c2ccccc12)C(=O)N[C@@H](Cc1ccc(C(F)(F)F)cc1)C(=O)N[C@@H](C)C(=O)N[C@@H](CCC(N)=O)C(=O)N[C@@H](C)C(=O)N[C@@H](CC(C)C)C(=O)N[C@@H](CCCNC(=N)N)C(=O)N[C@]1(C)CCCCCCC=CCCC[C@@](C)(C(=O)N[C@@H](Cc2ccc(O)cc2)C(=O)N[C@@H](Cc2ccc(O)cc2)C(=O)N[C@@H](C)C(N)=O)NC(=O)[C@H](CC(N)=O)NC(=O)[C@H](Cc2ccccc2)NC(=O)[C@H](C)NC(=O)[C@H](CC(=O)O)NC(=O)CNC(=O)[C@H]([C@@H](C)CC)NC1=O, also called Ac-IWF4CF3AQALR$r8IGDAFN$YYA-NH2) [SEQ ID NO: 1683]	76.7 nM	9.1 nM	237 nM
Ac-IWIAQA[Phe(4-tBu)]R[R8]IGDAFN[S5]YYA-NH2 (staple 9-16; SMILES CC[C@H](C)[C@H](NC(C)=O)C(=O)N[C@@H](Cc1c[nH]c2ccccc12)C(=O)N[C@H](C(=O)N[C@@H](C)C(=O)N[C@@H](CCC(N)=O)C(=O)N[C@@H](C)C(=O)N[C@@H](Cc1ccc(C(C)(C)C)cc1)C(=O)N[C@@H](CCCNC(=N)N)C(=O)N[C@]1(C)CCCCCCC=CCCC[C@@](C)(C(=O)N[C@@H](Cc2ccc(O)cc2)C(=O)N[C@@H](Cc2ccc(O)cc2)C(=O)N[C@@H](C)C(N)=O)NC(=O)[C@H](CC(N)=O)NC(=O)[C@H](Cc2ccccc2)NC(=O)[C@H](C)NC(=O)[C@H](CC(=O)O)NC(=O)CNC(=O)[C@H]([C@@H](C)CC)NC1=O)[C@@H](C)CC, also called Ac-IWIAQAF4tBuR$r8IGDAFN$YYA-NH2) [SEQ ID NO: 1695]	169 nM	12.7 nM	288 nM
Ac-IWIAQA[2Nal]R[R8]IGDAFN[S5]YYA-NH2 (staple 9-16; SMILES CC[C@H](C)[C@H](NC(C)=O)C(=O)N[C@@H](Cc1c[nH]c2ccccc12)C(=O)N[C@H](C(=O)N[C@@H](C)C(=O)N[C@@H](CCC(N)=O)C(=O)N[C@@H](C)C(=O)N[C@@H](Cc1ccc2ccccc2c1)C(=O)N[C@@H](CCCNC(=N)N)C(=O)N[C@]1(C)CCCCCCC=CCCC[C@@](C)(C(=O)N[C@@H](Cc2ccc(O)cc2)C(=O)N[C@@H](Cc2ccc(O)cc2)C(=O)N[C@@H](C)C(N)=O)NC(=O)[C@H](CC(N)=O)NC(=O)[C@H](Cc2ccccc2)NC(=O)[C@H](C)NC(=O)[C@H](CC(=O)O)NC(=O)CNC(=O)[C@H]([C@@H](C)CC)NC1=O)[C@@H](C)CC, also called Ac-IWIAQA2NalR$r8IGDAFN$YYA-NH2) [SEQ ID NO: 1696]	120 nM	17.3 nM	234 nM
Ac-IWIAQALR[R8][Cba]GDAFN[S5]YYA-NH2 (staple 9-16; SMILES CC[C@H](C)[C@H](NC(C)=O)C(=O)N[C@@H](Cc1c[nH]c2ccccc12)C(=O)N[C@H](C(=O)N[C@@H](C)C(=O)N[C@@H](CCC(N)=O)C(=O)N[C@@H](C)C(=O)N[C@@H](CC(C)C)C(=O)N[C@@H](CCCNC(=N)N)C(=O)N[C@]1(C)CCCCCCC=CCCC[C@@](C)(C(=O)N[C@@H](Cc2ccc(O)cc2)C(=O)N[C@@H](Cc2ccc(O)cc2)C(=O)N[C@@H](C)C(N)=O)NC(=O)[C@H](CC(N)=O)NC(=O)[C@H](Cc2ccccc2)NC(=O)[C@H](C)NC(=O)[C@H](CC(=O)O)NC(=O)CNC(=O)[C@H](CC2CCC2)NC1=O)[C@@H](C)CC) [SEQ ID NO: 1698]	26.6 nM	27.5 nM	89 nM
Ac-IW[Igl]AQALR[R8]IGDAFN[S5]YYA-NH2 (staple 9-16; SMILES CC[C@H](C)[C@H](NC(C)=O)C(=O)N[C@@H](Cc1c[nH]c2ccccc12)C(=O)N[C@H](C(=O)N[C@@H](C)C(=O)N[C@@H](CCC(N)=O)C(=O)N[C@@H](C)C(=O)N[C@@H](CC(C)C)C(=O)N[C@@H](CCCNC(=N)N)C(=O)N[C@]1(C)CCCCCCC=CCCC[C@@](C)(C(=O)N[C@@H](Cc2ccc(O)cc2)C(=O)N[C@@H](Cc2ccc(O)cc2)C(=O)N[C@@H](C)C(N)=O)NC(=O)[C@H](CC(N)=O)NC(=O)[C@H](Cc2ccccc2)NC(=O)[C@H](C)NC(=O)[C@H](CC(=O)O)NC(=O)CNC(=O)[C@H]([C@@H](C)CC)NC1=O)C1Cc2ccccc2C1, also called Ac-IWIglAQALR$r8IGDAFN$YYA-NH2) [SEQ ID NO: 1682]	12.8 nM	146 nM	246 nM

Further lines, results first:

Ki (MCL-1)	Ki (BCL-XL)	Ki (BCL-2)	Binder
15.9 nM	7.1 nM	109 nM	Ac-IWIAQALR[R8][Cha]GDAFN[S5]YYA-NH2 (staple 9-16; SMILES CC[C@H](C)[C@H](NC(C)=O)C(=O)N[C@@H](Cc1c[nH]c2ccccc12)C(=O)N[C@H](C(=O)N[C@@H](C)C(=O)N[C@@H](CCC(N)=O)C(=O)N[C@@H](C)C(=O)N[C@@H](CC(C)C)C(=O)N[C@@H](CCCNC(=N)N)C(=O)N[C@]1(C)CCCCCCC=CCCC[C@@](C)(C(=O)N[C@@H](Cc2ccc(O)cc2)C(=O)N[C@@H](Cc2ccc(O)cc2)C(=O)N[C@@H](C)C(N)=O)NC(=O)[C@H](CC(N)=O)NC(=O)[C@H](Cc2ccccc2)NC(=O)[C@H](C)NC(=O)[C@H](CC(=O)O)NC(=O)CNC(=O)[C@H](CC2CCCCC2)NC1=O)[C@@H](C)CC) [SEQ ID NO: 1700]
22.2 nM	13.1 nM	182 nM	Ac-IW[hCha]AQALR[R8]IGDAFN[S5]YYA-NH2 (staple 9-16; SMILES CC[C@H](C)[C@H](NC(C)=O)C(=O)N[C@@H](Cc1c[nH]c2ccccc12)C(=O)N[C@@H](CCC1CCCCC1)C(=O)N[C@@H](C)C(=O)N[C@@H](CCC(N)=O)C(=O)N[C@@H](C)C(=O)N[C@@H](CC(C)C)C(=O)N[C@@H](CCCNC(=N)N)C(=O)N[C@]1(C)CCCCCCC=CCCC[C@@](C)(C(=O)N[C@@H](Cc2ccc(O)cc2)C(=O)N[C@@H](Cc2ccc(O)cc2)C(=O)N[C@@H](C)C(N)=O)NC(=O)[C@H](CC(N)=O)NC(=O)[C@H](Cc2ccccc2)NC(=O)[C@H](C)NC(=O)[C@H](CC(=O)O)NC(=O)CNC(=O)[C@H]([C@@H](C)CC)NC1=O, also called Ac-IWhChaAQALR$r8IGDAFN$YYA-NH2) [SEQ ID NO: 1680]
53.1 nM	69.7 nM	221 nM	Ac-IW[hPhe]AQALR[R8]IGDAFN[S5]YYA-NH2 (staple 9-16; SMILES CC[C@H](C)[C@H](NC(C)=O)C(=O)N[C@@H](Cc1c[nH]c2ccccc12)C(=O)N[C@@H](CCc1ccccc1)C(=O)N[C@@H](C)C(=O)N[C@@H](CCC(N)=O)C(=O)N[C@@H](C)C(=O)N[C@@H](CC(C)C)C(=O)N[C@@H](CCCNC(=N)N)C(=O)N[C@]1(C)CCCCCCC=CCCC[C@@](C)(C(=O)N[C@@H](Cc2ccc(O)cc2)C(=O)N[C@@H](Cc2ccc(O)cc2)C(=O)N[C@@H](C)C(N)=O)NC(=O)[C@H](CC(N)=O)NC(=O)[C@H](Cc2ccccc2)NC(=O)[C@H](C)NC(=O)[C@H](CC(=O)O)NC(=O)CNC(=O)[C@H]([C@@H](C)CC)NC1=O, also called Ac-IWhFAQALR$r8IGDAFN$YYA-NH2) [SEQ ID NO: 1681]

Reference: patent US20180273587A1 (AILERON THERAPEUTICS, published 2018)
